A word on the stoichiometry N: it is a count of units in the complex or per binding partner.

In this assay the target is 6Xhis-tagged AldE (class 3 aldehyde dehydrogenase encoded by synpcc7942_0489) from S. elongatus PCC7942 (S. elongatus PCC7942). The experiment in a line: SEC; HiLoad 16/60 SuperDex200 gel filtration column in 150 mM NaCl/50 mM Tris, 7.5/1 mM EDTA; elution compared with MW standards. On the technique in general: SEC sorts molecules by how far they enter the pores of the column.

On to “6Xhis-tagged AldE (class 3 aldehyde dehydrogenase encoded by synpcc7942_0489) from S. elongatus PCC7942 (enzyme)”, for which the stoichiometry N turned out to be 2.

The record behind these values is article PMC3594298.
